Measurements taken from publication PMC12145829, “The maternal vGluT2 and embryonic mGluR3 signaling relay system controls offspring wing dimorphism in pea aphid”.

How the values were obtained:
MBP-ApFoxO DBD [1] = target: T1, MBP-ApFoxO DBD (Acyrthosiphon pisum, UniProt A0A8R1VZ87 89-178); assay: EMSA; 0.5 ug protein, 5x labeled mutant probe; EMSA: room temperature, 30 min; 6% native PAGE in 0.5x TBE, 60 V, 4 C; binding buffer, salt and pH not stated; settings: protein: recombinant; tags: N-terminal MBP (pMAL-c2x); label: 5' biotin
T1 sequence (A0A8R1VZ87 entry or part of it): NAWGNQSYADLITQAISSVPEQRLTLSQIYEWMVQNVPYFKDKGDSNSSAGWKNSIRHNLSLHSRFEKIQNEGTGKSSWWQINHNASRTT

MBP-ApFoxO DBD [2] = target: T1, MBP-ApFoxO DBD; assay: EMSA; 0.5 and 5 ug protein; concentration-dependent shift; EMSA: room temperature, 30 min; 6% native PAGE in 0.5x TBE, 60 V, 4 C; binding buffer, salt and pH not stated; settings: protein: recombinant; tags: N-terminal MBP (pMAL-c2x); label: 5' biotin
MBP-ApFoxO DBD [3] = target: T1, MBP-ApFoxO DBD; assay: competition; 5x and 25x unlabeled probe vs labeled FRE2; shift greatly reduced; EMSA: room temperature, 30 min; 6% native PAGE in 0.5x TBE, 60 V, 4 C; binding buffer, salt and pH not stated; settings: protein: recombinant; tags: N-terminal MBP (pMAL-c2x)
MBP-ApFoxO DBD [4] = target: T1, MBP-ApFoxO DBD; assay: EMSA; 0.5 and 5 ug protein; EMSA: room temperature, 30 min; 6% native PAGE in 0.5x TBE, 60 V, 4 C; binding buffer, salt and pH not stated; settings: protein: recombinant; tags: N-terminal MBP (pMAL-c2x); label: 5' biotin

B1: FRE2 mutant (FRE_m) (dsDNA)
DNA 1: GATATAGTTTACACACCCGTATGACGGCAGAGA
DNA 2: TCTCTGCCGTCATACGGGTGTGTAAACTATATC
B1: no binding (MBP-ApFoxO DBD [1]).

B2: ApHh promoter FRE2 probe (dsDNA)
DNA 1: GATATAGTTTACATGTTTACATGACGGCAGAGA
DNA 2: TCTCTGCCGTCATGTAAACATGTAAACTATATC
B2: binds (MBP-ApFoxO DBD [2]).

B3: FRE2 unlabeled competitor (dsDNA)
DNA 1: B2 DNA 1
DNA 2: B2 DNA 2
B3: binds (MBP-ApFoxO DBD [3]).

B4: ApHh promoter FRE1 probe (dsDNA)
DNA 1: TTGACTGTAGTATGTAAACATTTCTGAACTCCA
DNA 2: TGGAGTTCAGAAATGTTTACATACTACAGTCAA
B4: no binding (MBP-ApFoxO DBD [4]).
